Laboratory results: patent US20260069707A1, “COMBINATION THERAPY WITH ANTIBODY-DRUG CONJUGATES AND HYALURONIDASES” (HALOZYME, INC., priority 2024, published 2026)
“And” between values parts separate entries of the source, which are not always exact repeats. Identical values can stand only once.

Experiment: Enhertu analytes (TAB, TADC, free payload) in skin tissue homogenates of injection site
Format: in vivo, Yucatan miniature pig (Sus scrofa domestica)
Details: for Free Payload Result / TADC/TAB Ratio / Total Antibody Result: skin injection site homogenate, individual sites; for TADC/TAB ratio in tissue homogenates / Concentration of free payload in tissue homogenates of injection site / Concentration of total ADC (TADC) in tissue homogenates of injection site / Concentration of total antibody (TAB) in tissue homogenates of injection site / AUC(1-7), free payload in tissue homogenates of injection site / AUC(1-7), total ADC (TADC) in tissue homogenates of injection site / AUC(1-7), total antibody (TAB) in tissue homogenates of injection site / Cmax, free payload in tissue homogenates of injection site / Cmax, total ADC (TADC) in tissue homogenates of injection site / Cmax, total antibody (TAB) in tissue homogenates of injection site: skin
Description: Porcine serum was used as surrogate matrix to prepare calibration standards and quality controls for skin sample quantitation. Untreated blank porcine skin was provided for preparation of monitoring quality controls. The porcine skin was homogenized at an approximate ratio of 0.5 mL of buffer for every 100 mg of skin. […] The monitoring controls were analyzed during the method performance evaluation. The following were selected for monitoring in the assay (Table 83).
Porcine serum was used as surrogate matrix to prepare calibration standards and quality controls for the quantitation of skin samples. […] The porcine skin was homogenized at an approximate ratio of 0.5 mL of buffer for every 100 mg of skin. […] These were analyzed during the method performance evaluation.
This sample was divided vertically into two identical pieces. One skin sample was placed into a pre-weighed cryogenic tube and its weight was recorded then stored on dry ice prior to transfer to ≤−70° C. The other skin sample was processed for potential future histological assessment into OCT freezing media and frozen on dry ice.
Animals received two SC doses on their lower abdominal region.
Two cohorts were included in the follow-on study. […] Each animal had two full thickness skin biopsies taken post-mortem using a 12 mm punch. This sample was divided vertically into two identical pieces. One skin sample was placed into a pre-weighed cryogenic tube and its weight was recorded, then stored on dry ice prior to transfer to ≤−70° C. The other skin sample was processed into OCT molds for potential future histological assessment.
Tissue lysates were prepared based upon the weight of the sample at a ratio of 0.2 g/mL homogenization buffer (Tables 81 and 82). The total protein concentration of each homogenate was determined by BCA assay. The concentration of the total ADC (TADC), total antibody (TAB) and free payload (deruxtecan) in each sample was then normalized to the protein concentration and reported in μg analyte per mg total protein.
In this study, six animals were used. […] Two cohorts were included in this study. Cohort 1 was euthanized 24 hours after treatment, while Cohort 2 was euthanized 48 hours after exposure to the two test solutions.

[1] = 24 hours after SC administration
[2] = 48 hours after SC administration
[3] = SC, day 1, individual animal, listed as ADC
[4] = SC, day 2, individual animal, listed as ADC
[5] = SC, day 7, individual animal, listed as ADC
[6] = SC, individual series, listed as ADC
[7] = SC, 24 h post-injection, individual animal, listed as ADC
[8] = SC, 48 h post-injection, individual animal, listed as ADC
[9] = SC, 168 h post-injection, individual animal, listed as ADC

Sacituzumab govitecan [Trodelvy]
Mean ADC in minipig skin [1]: 24.21 | Mean antibody (Ab) in minipig skin [1]: 27.65 | Mean payload in minipig skin [1]: 0.02 | Mean ADC in minipig skin [2]: 6.92 | Mean antibody (Ab) in minipig skin [2]: 7.97 | Mean payload in minipig skin [2]: 0.00 | Mean skin concentration, Free Payload (SC, 24 h post-injection): 0.02 μg/mg protein | Mean skin concentration, Total ADC (TADC) (SC, 24 h post-injection): 24.21 μg/mg protein | Mean skin concentration, Total Antibody (TAB) (SC, 24 h post-injection): 27.65 μg/mg protein | Mean skin concentration, Free Payload (SC, 48 h post-injection): 0.0042 μg/mg protein | Mean skin concentration, Total ADC (TADC) (SC, 48 h post-injection): 6.92 μg/mg protein | Mean skin concentration, Total Antibody (TAB) (SC, 48 h post-injection): 7.97 μg/mg protein | Mean skin concentration, Free Payload (SC, 168 h post-injection): 0.0004 μg/mg protein | Mean skin concentration, Total ADC (TADC) (SC, 168 h post-injection): 0.57 μg/mg protein | Mean skin concentration, Total Antibody (TAB) (SC, 168 h post-injection): 0.73 μg/mg protein | Concentration of free payload in the skin of minipigs [3]: 0.026 ug/mg protein and 0.020 ug/mg protein and 0.011 ug/mg protein | Total ADC concentration in the skin of minipigs [3]: 38.48 ug/mg protein and 22.00 ug/mg protein and 12.15 ug/mg protein | Total antibody concentration in the skin of minipigs [3]: 44.05 ug/mg protein and 22.63 ug/mg protein and 16.28 ug/mg protein | Concentration of free payload in the skin of minipigs (SC, day 1, mean): 0.02 ug/mg protein | Total ADC concentration in the skin of minipigs (SC, day 1, mean): 24.21 ug/mg protein | Total antibody concentration in the skin of minipigs (SC, day 1, mean): 27.65 ug/mg protein | Concentration of free payload in the skin of minipigs [4]: 0.003 ug/mg protein and 0.005 ug/mg protein (2×) | Total ADC concentration in the skin of minipigs [4]: 5.97 ug/mg protein and 6.98 ug/mg protein and 7.80 ug/mg protein | Total antibody concentration in the skin of minipigs [4]: 7.70 ug/mg protein and 8.07 ug/mg protein and 8.14 ug/mg protein | Concentration of free payload in the skin of minipigs (SC, day 2, mean): 0.00 ug/mg protein | Total ADC concentration in the skin of minipigs (SC, day 2, mean): 6.92 ug/mg protein | Total antibody concentration in the skin of minipigs (SC, day 2, mean): 7.97 ug/mg protein | Concentration of free payload in the skin of minipigs [5]: 0.001 ug/mg protein and 0.000 ug/mg protein (2×) | Total ADC concentration in the skin of minipigs [5]: 0.69 ug/mg protein and 0.48 ug/mg protein and 0.55 ug/mg protein | Total antibody concentration in the skin of minipigs [5]: 0.68 ug/mg protein and 0.72 ug/mg protein and 0.79 ug/mg protein | Concentration of free payload in the skin of minipigs (SC, day 7, mean): 0.00 ug/mg protein | Total ADC concentration in the skin of minipigs (SC, day 7, mean): 0.57 ug/mg protein | Total antibody concentration in the skin of minipigs (SC, day 7, mean): 0.73 ug/mg protein | AUC1-7, free payload in skin [6]: 0.024 ug*day/mL (2×) and 0.021 ug*day/mL | AUC1-7, total ADC in skin [6]: 38.87 µg·days/mL and 33.14 µg·days/mL and 30.85 µg·days/mL | AUC1-7, total antibody in skin [6]: 46.85 µg·days/mL and 37.33 µg·days/mL and 34.52 µg·days/mL | Cmax, free payload in skin [6]: 26 ng/mL and 20 ng/mL and 11 ng/mL | Cmax, total ADC in skin [6]: 38480 ng/mL and 22000 ng/mL and 12150 ng/mL | Cmax, total antibody in skin [6]: 44050 ng/mL and 22630 ng/mL and 16280 ng/mL | AUC1-7, free payload in skin (SC, mean): 0.02 µg·days/mL | AUC1-7, total ADC in skin (SC, mean): 34.29 µg·days/mL | AUC1-7, total antibody in skin (SC, mean): 39.57 µg·days/mL | Cmax, free payload in skin (SC, mean): 20 ng/mL | Cmax, total ADC in skin (SC, mean): 24210 ng/mL | Cmax, total antibody in skin (SC, mean): 27650 ng/mL | ADC/Ab ratio, mean AUC1-7 (minipig skin, SC): 87% | ADC/Ab ratio, mean Cmax (minipig skin, SC): 88% | ADC/Payload ratio, mean AUC1-7 (minipig skin, SC): 147791% | ADC/Payload ratio, mean Cmax (minipig skin, SC): 128404% | Free Payload Result (SC, 24 h, listed as ADC): 124000 pg/mL and 67800 pg/mL and 138000 pg/mL | TADC/TAB Ratio (SC, 24 h, listed as ADC): 0.97 and 0.75 and 0.87 | Total Antibody Result (SC, 24 h, listed as ADC): 143 µg/mL and 97.8 µg/mL and 237 µg/mL | Free Payload Result (SC, 48 h, listed as ADC): 21700 pg/mL and 29500 pg/mL and 33800 pg/mL | TADC/TAB Ratio (SC, 48 h, listed as ADC): 0.77 and 0.86 and 0.96 | Total Antibody Result (SC, 48 h, listed as ADC): 50.2 µg/mL and 51.7 µg/mL and 58.1 µg/mL | Free Payload Result (SC, 168 h, listed as ADC): 3320 pg/mL and 2240 pg/mL and 3520 pg/mL | TADC/TAB Ratio (SC, 168 h, listed as ADC): 1.00 and 0.67 and 0.70 | Total Antibody Result (SC, 168 h, listed as ADC): 4.43 µg/mL and 4.86 µg/mL and 5.80 µg/mL | TADC/TAB ratio in tissue homogenates (SC, 24 h post injection, individual animal, listed as ADC): 0.87 and 0.97 and 0.75 | TADC/TAB ratio in tissue homogenates (SC, 24 h post injection, mean): 1.14 | Concentration of free payload in tissue homogenates of injection site [7]: 0.026 μg/mg protein and 0.020 μg/mg protein and 0.011 μg/mg protein | Concentration of total ADC (TADC) in tissue homogenates of injection site [7]: 38.48 μg/mg protein and 22.00 μg/mg protein and 12.15 μg/mg protein | Concentration of total antibody (TAB) in tissue homogenates of injection site [7]: 44.05 μg/mg protein and 22.63 μg/mg protein and 16.28 μg/mg protein | Concentration of free payload in tissue homogenates of injection site (SC, 24 h post-injection, mean): 0.02 μg/mg protein | Concentration of total ADC (TADC) in tissue homogenates of injection site (SC, 24 h post-injection, mean): 24.21 μg/mg protein | Concentration of total antibody (TAB) in tissue homogenates of injection site (SC, 24 h post-injection, mean): 27.65 μg/mg protein | TADC/TAB ratio in tissue homogenates (SC, 48 h post injection, individual animal, listed as ADC): 0.78 and 0.86 and 0.96 | TADC/TAB ratio in tissue homogenates (SC, 48 h post injection, mean): 1.15 | Concentration of free payload in tissue homogenates of injection site [8]: 0.003 μg/mg protein and 0.005 μg/mg protein (2×) | Concentration of total ADC (TADC) in tissue homogenates of injection site [8]: 5.97 μg/mg protein and 6.98 μg/mg protein and 7.80 μg/mg protein | Concentration of total antibody (TAB) in tissue homogenates of injection site [8]: 7.70 μg/mg protein and 8.07 μg/mg protein and 8.14 μg/mg protein | Concentration of free payload in tissue homogenates of injection site (SC, 48 h post-injection, mean): 0.00 μg/mg protein | Concentration of total ADC (TADC) in tissue homogenates of injection site (SC, 48 h post-injection, mean): 6.92 μg/mg protein | Concentration of total antibody (TAB) in tissue homogenates of injection site (SC, 48 h post-injection, mean): 7.97 μg/mg protein | TADC/TAB ratio in tissue homogenates (SC, 168 h post injection, individual animal, listed as ADC): 1.01 and 0.67 and 0.70 | TADC/TAB ratio in tissue homogenates (SC, 168 h post injection, mean): 1.27 | Concentration of free payload in tissue homogenates of injection site [9]: 0.001 μg/mg protein and 0.000 μg/mg protein (2×) | Concentration of total ADC (TADC) in tissue homogenates of injection site [9]: 0.69 μg/mg protein and 0.48 μg/mg protein and 0.55 μg/mg protein | Concentration of total antibody (TAB) in tissue homogenates of injection site [9]: 0.68 μg/mg protein and 0.72 μg/mg protein and 0.79 μg/mg protein | Concentration of free payload in tissue homogenates of injection site (SC, 168 h post-injection, mean): 0.00 μg/mg protein | Concentration of total ADC (TADC) in tissue homogenates of injection site (SC, 168 h post-injection, mean): 0.57 μg/mg protein | Concentration of total antibody (TAB) in tissue homogenates of injection site (SC, 168 h post-injection, mean): 0.73 μg/mg protein | AUC(1-7), free payload in tissue homogenates of injection site [6]: 0.024 ug*day/mL (2×) and 0.021 ug*day/mL | AUC(1-7), total ADC (TADC) in tissue homogenates of injection site [6]: 38.87 µg·days/mL and 33.14 µg·days/mL and 30.85 µg·days/mL | AUC(1-7), total antibody (TAB) in tissue homogenates of injection site [6]: 46.85 µg·days/mL and 37.33 µg·days/mL and 34.52 µg·days/mL | Cmax, free payload in tissue homogenates of injection site [6]: 26 ng/mL and 20 ng/mL and 11 ng/mL | Cmax, total ADC (TADC) in tissue homogenates of injection site [6]: 38480 ng/mL and 22000 ng/mL and 12150 ng/mL | Cmax, total antibody (TAB) in tissue homogenates of injection site [6]: 44050 ng/mL and 22630 ng/mL and 16280 ng/mL | AUC(1-7), free payload in tissue homogenates of injection site (SC, mean): 0.02 µg·days/mL | AUC(1-7), total ADC (TADC) in tissue homogenates of injection site (SC, mean): 34.29 µg·days/mL | AUC(1-7), total antibody (TAB) in tissue homogenates of injection site (SC, mean): 39.57 µg·days/mL | Cmax, free payload in tissue homogenates of injection site (SC, mean): 20 ng/mL | Cmax, total ADC (TADC) in tissue homogenates of injection site (SC, mean): 24210 ng/mL | Cmax, total antibody (TAB) in tissue homogenates of injection site (SC, mean): 27650 ng/mL
